Source: paper PMC3549492

Assays:
[1] = molecular target: N-terminal HaloTag human KIF1A (amino acids 1-361) fusion protein (human) (UniProt Q12756); experiment: pull-down; HaloTag-Kif1a (1-361) on HaloLink magnetic beads under saturated conditions; MTs with or without full-length human Dcx; 5 μM of each protein; 4 mM ATP, ADP or AMP-PNP; supernatant and pellet, silver staining, densitometry, bound fraction P/(S+P) normalized to ATP without Dcx
[2] = molecular target: MTs of the traditional MT pull-down assay from lysates; experiment: pull-down; traditional MT pull-down assay with AMP-PNP; lysates from HEK cells expressing Kif1 (1-365) with or without Dcx (amino acids 1-270); excess MTs

porcine MTs (microtubules) (complex) gave a fold increase of Kif1a-MT binding with Dcx in the presence of ADP, against a Dcx-negative control [1] of 2 fold.

B1: motor domain of Kif1 (amino acids 1-365) (domain or fragment)
chain: MAGASVKVAVRVRPFNSREMSRDSKCIIQMSGSTTTIVNPKQPKETPKSFSFDYSYWSHTSPEDINYASQKQVYRDIGEEMLQHAFEGYNVCIFAYGQTGAGKSYTMMGKQEKDQQGIIPQLCEDLFSRINDTTNDNMSYSVEVSYMEIYCERVRDLLNPKNKGNLRVREHPLLGPYVEDLSKLAVTSYNDIQDLMDSGNKARTVAATNMNETSSRSHAVFNIIFTQKRHDAETNITTEKVSKISLVDLAGSERADSTGAKGTRLKEGANINKSLTTLGKVISALAEMDSGPNKNKKKKKTDFIPYRDSVLTWLLRENLGGNSRTAMVAALSPADINYDETLSTLRYADRAKQIRCNAVINEDPN
B1 showed an increase in binding of Kif1a to MTs with Dcx (amino acids 1-270) over control [2] of 15 to 20%.
